Data reported in US20240209086A1 (PETMEDIX, published 2024).
Numbering of substitutions follows the chain as printed.

B1: PMX158 (monospecific anti-canine CD3, canine IgG-B effector function deficient Fc) (antibody, V domains shown)
VH: ELTLQESGPGLVKPSQTLSLTCVVSGGSVTRSYYWNWIRQRPGRGLEWMGYWTGTTNYNPAFQGRISITADTAKNQCSLQLSSMTTEDTAVYYCAREGGKLLGAFGHWGQGTLVTVSS
VL: SYVLTQLPSKNVTLKQPAHITCGGDKIGSKSVHWYQQKLGQAPVLIIYYDSSRLTGIPERFSGANSGNTATLTISGALAEDEADYYCQVWDSSAKASVFGGGTHLTVL
B2: PMX159 (monospecific anti-canine CD3, canine IgG-B effector function deficient Fc) (antibody, V domains shown)
VH: ELTLQESGPGLVKPSQTLSLTCVVSGGSVTRSYYWNWIRQRPGRGLEWMGYWTGSTIYNPTFQGRISITADTAKSQFSLQLRSMTTEDTAMYFCAREGGKSLGAFAYWGQGTLVTVSS
VL: B1 VL with S31N, L45M, L54P, S97A
B3: PMX157 (monospecific anti-canine CD3, canine IgG-B effector function deficient Fc) (antibody, V domains shown)
VH: ELTLQESGPGLVKPSQTLSLTCVVSGGSVTSSYFWNWIRQRPGRGLEWMGYWTGSTIYSPAFQGRISITPDTAKNQFSLQLSSMTTEDTAVYYCSREGGSTLGAFAYWGQGTLVTVSS
VL: B1 VL with L54P
B4: PMX160 (monospecific anti-canine CD3, canine IgG-B effector function deficient Fc) (antibody)
heavy: EVQMVESGGDLVKPGGSLRFSCVASGFTFSSYHMSWVRQAPGKGLQWVAYINSGGSRTSYADAVKGRFTISRDNAKNTLYLQMNSLRAEDTAVYYCASGRSPPPLGSFDYGLDYWGHGTSLFVSSASTTAPSVFPLAPSCGSTSGSTVALACLVSGYFPEPVTVSWNSGSLTSGVHTFPSVLQSSGLYSLSSMVTVPSSRWPSETFTCNVAHPASKTKVDKPVPKRENGRVPRPPDCPKCPAPESLGGPSVFIFPPKPKDTLLIARTPEVTCVVVDLGREDPEVQISWFVDGKQMQTAKTQPREEQFNGTYRVVSVLPIGHQDWLKGKQFTCKVNHIGLPSPIERTISKARGQAHQPSVYVLPPSREELSKNTVSLTCLIKDFFPPDIDVEWQSNGQQEPESKYRTTPPQLDEDGSYFLYSKLSVDKSRWQRGDTFICAVMHEALHNHYTQKSLSHSPGK
VL: B1 VL with K26N, L54P, S97W, G101E, H104Q
B5: PMX163 (monospecific anti-canine CD3, canine IgG-B effector function deficient Fc) (antibody, V domains shown)
VH: ELALQESGPGLVRPSQTLSLTCVVSGGSVTRSYYWNWIRQRPGRGLEWMGYWTGTTIYNPAFQGRISITVDTAKNQFSLHLISMTTEDTAVYYCGREGGSSLGAIAYWGQGTRVTVSS
VL: B1 VL with K26N, L54P, S97A
B6: PMX165 (monospecific anti-canine CD3, canine IgG-B effector function deficient Fc) (antibody)
heavy: EVQLVESGGDLVKPGGSLRLSCVASGFNFSASHMSWVRQAPGKGLQWVAYITNAGGRISYADAVKGRFTISRDNAKNTLYLQMSSLRVEDTAVYYCATERPGRRMGLKDYGMDYWGHGTSLFVSSASTTAPSVFPLAPSCGSTSGSTVALACLVSGYFPEPVTVSWNSGSLTSGVHTFPSVLQSSGLYSLSSMVTVPSSRWPSETFTCNVAHPASKTKVDKPVPKRENGRVPRPPDCPKCPAPESLGGPSVFIFPPKPKDTLLIARTPEVTCVVVDLGREDPEVQISWFVDGKQMQTAKTQPREEQFNGTYRVVSVLPIGHQDWLKGKQFTCKVNHIGLPSPIERTISKARGQAHQPSVYVLPPSREELSKNTVSLTCLIKDFFPPDIDVEWQSNGQQEPESKYRTTPPQLDEDGSYFLYSKLSVDKSRWQRGDTFICAVMHEALHNHYTQKSLSHSPGK
VL: B1 VL with K26N, L54P
B7: PMX167 (monospecific anti-canine CD3, canine IgG-B effector function deficient Fc) (antibody, V domains shown)
VH: EVKLVESGGDLVKPGGSLRLSCMASGFTLNNYYMSWVRQAPGKGLQWVAYIKSGGSDTSYVDAVKGRFTISRDNAKNTLHLQMNSLRVEDTAVYYCATDGYIWAWGQGTLVTVSS
VL: B1 VL with K26N, S51N, L54P, N65K, A94S, S97Y, G101S, H104Q
B8: PMX162 (monospecific anti-canine CD3, canine IgG-B effector function deficient Fc) (antibody)
heavy: EMQLVESGGDLVKPGGSLRLSCVASGFTFSTYHMSWVRQAPGKGLQWVAYSNSGGTRTYYADAVKGRFTISRDNVKNTLYLQMNSLRAEDTAVYYCASEGSGGGRYGFKDYGMDYWGHGTSLFVSTASTTAPSVFPLAPSCGSTSGSTVALACLVSGYFPEPVTVSWNSGSLTSGVHTFPSVLQSSGLYSLSSMVTVPSSRWPSETFTCNVAHPASKTKVDKPVPKRENGRVPRPPDCPKCPAPESLGGPSVFIFPPKPKDTLLIARTPEVTCVVVDLGREDPEVQISWFVDGKQMQTAKTQPREEQFNGTYRVVSVLPIGHQDWLKGKQFTCKVNHIGLPSPIERTISKARGQAHQPSVYVLPPSREELSKNTVSLTCLIKDFFPPDIDVEWQSNGQQEPESKYRTTPPQLDEDGSYFLYSKLSVDKSRWQRGDTFICAVMHEALHNHYTQKSLSHSPGK
VL: B1 VL with K26N, L54P, S97W, G101E, H104Q
B9: PMX178 (monospecific anti-canine CD3, canine IgG-B effector function deficient Fc) (antibody, V domains shown)
VH: B5 VH
VL: B1 VL with K26N, S29R, L54P, S97A
B10: PMX166 (monospecific anti-canine CD3, canine IgG-B effector function deficient Fc) (antibody, V domains shown)
VH: B3 VH
VL: B1 VL with K26N, L54P
B11: PMX173 (monospecific anti-canine CD3, canine IgG-B effector function deficient Fc) (antibody)
heavy: B8 heavy with M2V, N52H, V75G
VL: B1 VL with K26N, L54P, S97W, G101E, H104Q
B12: PMX168 (monospecific anti-canine CD3, canine IgG-B effector function deficient Fc) (antibody, V domains shown)
VH: B1 VH
VL: B1 VL with L54P

molecular target: canine CD3 on canine T cells (canine PBMC) (canine, UniProt P27597 22-202); assay: cell-based or functional assay
Sequence (P27597 22-202 limits assumed, chain 1 of 3): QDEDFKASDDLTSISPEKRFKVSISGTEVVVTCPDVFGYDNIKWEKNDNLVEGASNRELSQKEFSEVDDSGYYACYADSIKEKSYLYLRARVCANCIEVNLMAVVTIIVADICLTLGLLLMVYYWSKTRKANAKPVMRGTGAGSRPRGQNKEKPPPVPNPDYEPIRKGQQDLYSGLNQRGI
Sequence (chain, as listed by the source limits assumed, chain 2 of 3): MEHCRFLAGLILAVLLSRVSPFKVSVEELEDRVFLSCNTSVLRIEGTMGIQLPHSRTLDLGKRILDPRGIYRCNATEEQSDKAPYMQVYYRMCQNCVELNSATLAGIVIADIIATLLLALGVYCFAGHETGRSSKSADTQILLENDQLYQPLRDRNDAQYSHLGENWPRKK
Sequence (chain, as listed by the source limits assumed, chain 3 of 3): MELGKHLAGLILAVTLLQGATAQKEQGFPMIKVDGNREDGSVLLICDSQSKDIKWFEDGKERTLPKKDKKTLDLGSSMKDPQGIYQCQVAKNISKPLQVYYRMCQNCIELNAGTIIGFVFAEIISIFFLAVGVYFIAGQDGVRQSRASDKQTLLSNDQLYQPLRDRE

| Binder | CD25 Activation, Day 6, IS | CD25 Activation, Day 6, PB | CD25 Activation, Day 9, IS | CD25 Activation, Day 9, PB | IFNy Concentration pg/ml, Day 6, IS [pg/mL] | IFNy Concentration pg/ml, Day 9, IS [pg/mL] | IFNy Concentration pg/ml, Day 9, PB [pg/mL] | Ki67 Proliferation, Day 6, IS | Ki67 Proliferation, Day 6, PB | Ki67 Proliferation, Day 9, IS |
| --- | --- | --- | --- | --- | --- | --- | --- | --- | --- | --- |
| B1 | 13.1 | 9.65 | 5.45 | 12.3 | 48.2 | 88.3 | 2440 | 2.63 | 0.54 | 0.45 |
| B2 | 11.3 | 11.5 | 9.13 | 13.1 | 137 | 262 | 3050 | 1.69 | 0.37 | 1.28 |
| B3 | 9.65 | 11.6 | 9.96 | 8.72 | 44.4 | 209 | 3140 | 1.24 | 0.4 | 0.85 |
| B4 | 10.6 | 9.42 | 7.14 | 5.98 | 36.5 | 114 | 1460 | 0.84 | 0.12 | 1.87 |
| B5 | 13.3 | 18.8 | 10.1 | 14.6 | 56.2 | 145 | 3770 | 4.91 | 0.3 | 0.71 |
| B6 | 12.1 | 13.4 | 10.4 | 23.6 | 74.6 | 108 | 1370 | 1.67 | 0.26 | 1.3 |
| B7 | 7.09 | 4.93 | 11.6 | 12.8 | 63.5 | 802 | 1290 | 1.55 | 0 | 2.66 |
| B8 | 16 | 8.64 | 8.75 | 10.4 | 61.1 | 89.2 | 330 | 1.73 | 0.36 | 0.51 |
| B9 | 9.79 | 20.5 | 8.41 | 9.23 | 24.7 | 223 | 2110 | 0.84 | 1.13 | 1.83 |
| B10 | 11.4 | 14.5 | 9.15 | 22 | 67.6 | 112 | 2780 | 2.77 | 0.95 | 0.92 |
| B11 | 8.5 | 13.3 | 9.37 | 11.5 | 56.7 | 125 | 1110 | 1.01 | 0.57 | 1.38 |
| B12 | 7.17 | 13.4 | 8.87 | 6.52 | 61.1 | 301 | 2450 | 1.57 | 0.15 | 1.53 |

same assay, conditions: not given

| Binder | Ki67 Proliferation, Day 9, PB |
| --- | --- |
| B1 | 0 |
| B2 | 0 |
| B3 | 0.34 |
| B4 | 0.33 |
| B5 | 0.75 |
| B6 | 0 |
| B7 | 0.25 |
| B8 | 0.43 |
| B9 | 0.16 |
| B10 | 1.28 |
| B11 | 0.34 |
| B12 | 0.36 |
